Experimental data reported in patent US20180085469A1.
One block for each molecule: values may come before it.

Assays:
CD22 (human) [1] = biological target: CD22 (human) (UniProt P20273); assay: flow cytometry, MN-60 cells, FITC goat anti-human IgG detection
CD22 (human) [2] = biological target: CD22 (human) (UniProt P20273); assay: flow cytometry, REH cells, FITC goat anti-human IgG detection
CD22 (human) [3] = biological target: CD22 (human) (UniProt P20273); assay: flow cytometry, RS4;11 cells, FITC goat anti-human IgG detection
CD22 (human) [4] = biological target: CD22 (human) (UniProt P20273); assay: flow cytometry, Raji cells, FITC goat anti-human IgG detection
CD22 (human) [5] = biological target: CD22 (human) (UniProt P20273); assay: flow cytometry, Daudi cells, FITC goat anti-human IgG detection
CD22 (human) [6] = biological target: CD22 (human) (UniProt P20273); assay: flow cytometry, 697 cells, FITC goat anti-human IgG detection
CD22 (human) [7] = biological target: CD22 (human) (UniProt P20273); assay: flow cytometry, WSU-FSCCL cells, FITC goat anti-human IgG detection
CD22 (human) [8] = biological target: CD22 (human) (UniProt P20273); assay: flow cytometry, Jeko-1 cells, FITC goat anti-human IgG detection
CD22 (human) [9] = biological target: CD22 (human) (UniProt P20273); assay: flow cytometry, Ramos cells, FITC goat anti-human IgG detection
[10] = biological target: Human trophoblast cell-surface antigen (TROP-2) (human) (UniProt P09758); assay: flow cytometry, surface, NCI-N87 cells
[11] = biological target: Human trophoblast cell-surface antigen (TROP-2) (human) (UniProt P09758); assay: flow cytometry, surface, Capan-1 cells
[12] = biological target: CD74 (invariant chain, Ii) (human) (UniProt P04233); assay: flow cytometry, surface and cytoplasmic (permeabilized), HuH-7 cells; ratio to background
[13] = biological target: CD74 (invariant chain, Ii) (human) (UniProt P04233); assay: flow cytometry, surface and cytoplasmic (permeabilized), Capan-1 cells
[14] = biological target: CD74 (invariant chain, Ii) (human) (UniProt P04233); assay: flow cytometry, surface and cytoplasmic (permeabilized), Capan-1 cells; ratio to background
[15] = biological target: CD74 (invariant chain, Ii) (human) (UniProt P04233); assay: flow cytometry, surface and cytoplasmic (permeabilized), NCI-N87 cells
[16] = biological target: CD74 (invariant chain, Ii) (human) (UniProt P04233); assay: flow cytometry, surface and cytoplasmic (permeabilized), A-375 cells
[17] = biological target: CD74 (invariant chain, Ii) (human) (UniProt P04233); assay: flow cytometry, surface, Capan-1 cells, GAH-FITC detection
[18] = biological target: CD74 (invariant chain, Ii) (human) (UniProt P04233); assay: flow cytometry, surface, NCI-N87 cells; ratio to background (GAH-FITC only)
[19] = biological target: CD74 (invariant chain, Ii) (human) (UniProt P04233); assay: flow cytometry, surface, A-375 cells; ratio to background (GAH-FITC only)
[20] = biological target: CD74 (invariant chain, Ii) (human) (UniProt P04233); assay: flow cytometry, surface and cytoplasmic (permeabilized), Raji cells
[21] = biological target: CD74 (invariant chain, Ii) (human) (UniProt P04233); assay: flow cytometry, surface, Raji cells, GAH-FITC detection
[22] = biological target: CD74 (invariant chain, Ii) (human) (UniProt P04233); assay: flow cytometry, surface and cytoplasmic (permeabilized), HuH-7 cells
[23] = biological target: CD74 (invariant chain, Ii) (human) (UniProt P04233); assay: flow cytometry, surface, Hs746T cells, GAH-FITC detection
[24] = biological target: CD74 (invariant chain, Ii) (human) (UniProt P04233); assay: flow cytometry, surface and cytoplasmic (permeabilized), Hep-G2 cells; ratio to background
[25] = biological target: CD74 (invariant chain, Ii) (human) (UniProt P04233); assay: cell binding assay on antigen-positive cells
[26] = biological target: CD74 (invariant chain, Ii) (human) (UniProt P04233); assay: flow cytometry, surface and cytoplasmic (permeabilized), A-375 cells; ratio to background
[27] = biological target: CD74 (invariant chain, Ii) (human) (UniProt P04233); assay: flow cytometry, surface and cytoplasmic (permeabilized), Hs746T cells; ratio to background
[28] = biological target: CD74 (invariant chain, Ii) (human) (UniProt P04233); assay: flow cytometry, surface, Hep-G2 cells; ratio to background (GAH-FITC only)
[29] = biological target: CD74 (invariant chain, Ii) (human) (UniProt P04233); assay: flow cytometry, surface, HuH-7 cells; ratio to background (GAH-FITC only)
[30] = biological target: CD74 (invariant chain, Ii) (human) (UniProt P04233); assay: flow cytometry, surface, Hep-G2 cells, GAH-FITC detection
[31] = biological target: CD74 (invariant chain, Ii) (human) (UniProt P04233); assay: flow cytometry, surface, Raji cells; ratio to background (GAH-FITC only)
[32] = biological target: CD74 (invariant chain, Ii) (human) (UniProt P04233); assay: flow cytometry, surface and cytoplasmic (permeabilized), Hs746T cells
[33] = biological target: CD74 (invariant chain, Ii) (human) (UniProt P04233); assay: flow cytometry, surface, Capan-1 cells; ratio to background (GAH-FITC only)
[34] = biological target: CD74 (invariant chain, Ii) (human) (UniProt P04233); assay: flow cytometry, surface, HuH-7 cells, GAH-FITC detection
[35] = biological target: CD74 (invariant chain, Ii) (human) (UniProt P04233); assay: flow cytometry, surface and cytoplasmic (permeabilized), Raji cells; ratio to background
[36] = biological target: CD74 (invariant chain, Ii) (human) (UniProt P04233); assay: flow cytometry, surface, Hs746T cells; ratio to background (GAH-FITC only)
[37] = biological target: CD74 (invariant chain, Ii) (human) (UniProt P04233); assay: flow cytometry, surface, A-375 cells, GAH-FITC detection
[38] = biological target: CD74 (invariant chain, Ii) (human) (UniProt P04233); assay: flow cytometry, surface, NCI-N87 cells, GAH-FITC detection
[39] = biological target: CD74 (invariant chain, Ii) (human) (UniProt P04233); assay: flow cytometry, surface and cytoplasmic (permeabilized), Hep-G2 cells
[40] = biological target: CD74 (invariant chain, Ii) (human) (UniProt P04233); assay: flow cytometry, surface and cytoplasmic (permeabilized), NCI-N87 cells; ratio to background
CEACAM6 (human) [41] = biological target: CEACAM6 (human) (UniProt P40199); assay: flow cytometry, surface, NCI-N87 cells
CEACAM6 (human) [42] = biological target: CEACAM6 (human) (UniProt P40199); assay: flow cytometry, surface, HuH-7 cells
CEACAM6 (human) [43] = biological target: CEACAM6 (human) (UniProt P40199); assay: flow cytometry, surface, Hep-G2 cells
CD20 (human) [44] = biological target: T1, CD20 (human) (UniProt P11836); assay: flow cytometry, MN-60 cells, FITC goat anti-human IgG detection
T1 sequence (looked up): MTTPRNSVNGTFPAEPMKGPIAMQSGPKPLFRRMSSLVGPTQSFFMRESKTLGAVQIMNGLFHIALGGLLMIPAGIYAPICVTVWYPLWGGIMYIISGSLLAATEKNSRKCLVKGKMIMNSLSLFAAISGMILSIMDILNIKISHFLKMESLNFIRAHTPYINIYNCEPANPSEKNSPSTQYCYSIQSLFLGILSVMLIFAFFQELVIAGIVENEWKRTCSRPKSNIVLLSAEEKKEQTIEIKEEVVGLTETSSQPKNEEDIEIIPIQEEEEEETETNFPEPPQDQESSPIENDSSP

CD20 (human) [45] = biological target: T1, CD20 (human); assay: flow cytometry, REH cells, FITC goat anti-human IgG detection
CD20 (human) [46] = biological target: T1, CD20 (human); assay: flow cytometry, Raji cells, FITC goat anti-human IgG detection
CD20 (human) [47] = biological target: T1, CD20 (human); assay: flow cytometry, Daudi cells, FITC goat anti-human IgG detection
CD20 (human) [48] = biological target: T1, CD20 (human); assay: flow cytometry, RS4;11 cells, FITC goat anti-human IgG detection (background 4.1)
CD20 (human) [49] = biological target: T1, CD20 (human); assay: flow cytometry, 697 cells, FITC goat anti-human IgG detection
CD20 (human) [50] = biological target: T1, CD20 (human); assay: flow cytometry, WSU-FSCCL cells, FITC goat anti-human IgG detection
CD20 (human) [51] = biological target: T1, CD20 (human); assay: flow cytometry, Jeko-1 cells, FITC goat anti-human IgG detection
CD20 (human) [52] = biological target: T1, CD20 (human); assay: flow cytometry, Ramos cells, FITC goat anti-human IgG detection

Chain of CEACAM6 (human) (P40199 35-320): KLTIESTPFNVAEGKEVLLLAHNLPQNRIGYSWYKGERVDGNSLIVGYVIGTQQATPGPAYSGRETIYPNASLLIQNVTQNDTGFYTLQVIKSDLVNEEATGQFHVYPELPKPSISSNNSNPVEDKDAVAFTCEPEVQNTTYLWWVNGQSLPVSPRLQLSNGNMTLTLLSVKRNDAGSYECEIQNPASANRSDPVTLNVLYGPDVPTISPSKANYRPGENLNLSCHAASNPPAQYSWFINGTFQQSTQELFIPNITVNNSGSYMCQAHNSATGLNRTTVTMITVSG
Chain of CD74 (invariant chain, Ii) (human) (P04233 whole entry, change not shown): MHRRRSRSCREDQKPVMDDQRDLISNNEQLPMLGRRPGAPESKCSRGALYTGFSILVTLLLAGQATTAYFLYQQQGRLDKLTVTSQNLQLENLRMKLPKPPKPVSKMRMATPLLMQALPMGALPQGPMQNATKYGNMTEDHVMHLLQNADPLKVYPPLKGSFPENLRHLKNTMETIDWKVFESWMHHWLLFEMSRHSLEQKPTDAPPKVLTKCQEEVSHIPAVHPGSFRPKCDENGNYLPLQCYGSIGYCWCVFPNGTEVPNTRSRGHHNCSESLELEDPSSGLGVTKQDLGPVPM
Chain of Human trophoblast cell-surface antigen (TROP-2) (human) (P09758 27-323): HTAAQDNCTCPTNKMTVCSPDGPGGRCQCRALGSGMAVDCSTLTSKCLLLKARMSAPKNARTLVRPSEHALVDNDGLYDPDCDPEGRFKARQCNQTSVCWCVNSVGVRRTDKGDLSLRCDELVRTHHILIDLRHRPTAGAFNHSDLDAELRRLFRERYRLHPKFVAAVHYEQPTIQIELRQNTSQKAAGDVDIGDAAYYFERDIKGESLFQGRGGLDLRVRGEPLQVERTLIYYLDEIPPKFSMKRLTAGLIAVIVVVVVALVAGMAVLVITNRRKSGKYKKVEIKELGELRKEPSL

Molecule: epratuzumab (hLL2), humanized anti-CD22 IgG1 (antibody)
Median fluorescence (CD22 (human) [1]): 10.3
Median fluorescence (CD22 (human) [2]): 22.9
Median fluorescence (CD22 (human) [3]): 23.3
Median fluorescence (CD22 (human) [4]): 45.9
Median fluorescence (CD22 (human) [5]): 145
Median fluorescence (CD22 (human) [6]): 16
Median fluorescence (CD22 (human) [7]): 7.7
Median fluorescence (CD22 (human) [8]): 11.2
Median fluorescence (CD22 (human) [9]): 40.8

Molecule: milatuzumab (hLL1), humanized anti-CD74 antibody
MFI Ratio hLL1:bkgd [12]: 28.5
MFI [13]: 248
MFI Ratio hLL1:bkgd [14]: 49.6
MFI [15]: 220
MFI [16]: 185
MFI [17]: 22
MFI Ratio hLL1:bkgd [18]: 1.3
MFI Ratio hLL1:bkgd [19]: 5.3
MFI [20]: 143
MFI [21]: 59
MFI [22]: 114
MFI [23]: 17
MFI Ratio hLL1:bkgd [24]: 31.2
Kd [25]: 770 pM
MFI Ratio hLL1:bkgd [26]: 30.8
MFI Ratio hLL1:bkgd [27]: 28.8
MFI Ratio hLL1:bkgd [28]: 1.5
MFI Ratio hLL1:bkgd [29]: 1.6
MFI [30]: 9
MFI Ratio hLL1:bkgd [31]: 19.6
MFI [32]: 144
MFI Ratio hLL1:bkgd [33]: 1.8
MFI [34]: 8
MFI Ratio hLL1:bkgd [35]: 28.6
MFI Ratio hLL1:bkgd [36]: 2.1
MFI [37]: 16
MFI [38]: 5
MFI [39]: 156
MFI Ratio hLL1:bkgd [40]: 36.7

More lines, now with the values ahead:

MFI [10]: 795
MFI [11]: 237
Molecule: humanized RS7 IgG (hRS7), anti-TROP-2 humanized antibody

MFI (CEACAM6 (human) [41]): 1120
MFI (CEACAM6 (human) [42]): 81
MFI (CEACAM6 (human) [43]): 175
B1: hMN-15, humanized anti-CEACAM6 antibody (antibody, from a related filing, IgG1, V domains shown)
VH: QVQLVESGGGVVQPGRSLRLSCSSSGFALTDYYMSWVRQAPGKGLEWLGFIANKANGHTTDYSPSVKGRFTISRDNSKNTLFLQMDSLRPEDTGVYFCARDMGIRWNFDVWGQGTPVTVSS
VL: DIQLTQSPSSLSASVGDRVTMTCSASSRVSYIHWYQQKPGKAPKRWIYGTSTLASGVPARFSGSGSGTDFTFTISSLQPEDIATYYCQQWSYNPPTFGQGTKVEIKR

Median fluorescence (CD20 (human) [44]): 21.5
Median fluorescence (CD20 (human) [45]): 12.3
Median fluorescence (CD20 (human) [46]): 422
Median fluorescence (CD20 (human) [47]): 815
Median fluorescence (CD20 (human) [48]): 3.7
Median fluorescence (CD20 (human) [49]): 6.9
Median fluorescence (CD20 (human) [50]): 97.4
Median fluorescence (CD20 (human) [51]): 605
Median fluorescence (CD20 (human) [52]): 620
B2: veltuzumab (hA20), humanized anti-CD20 IgG1 (antibody, from a related filing, V domains shown, part only)
VH: QVQLQQSGAEVKKPGSSVKVSCKASGYTFTSYNMHWVKQAPGQGLEWIGAIYPGNGDTSYNQKFKGKATLTADESTNTAYMELSSLRSEDTAFYYCARSTYYGGDWYFDVWGQGTTVTVSS
VL: DIQLTQSPSSLSASVGDRVTMTCRASSSVSYIHWFQQKPGKAPKPWIYATSNLASGVPVRFSGSGSGTDYTFTISSLQPEDIATYYCQQWTSNPPTFGGGTKLEIK
